IntAct's records for PubMed 33986552

The substances below were run against GMPPA, Q96IJ6-1.
Chain of GMPPA, Q96IJ6-1 (Q96IJ6 whole entry): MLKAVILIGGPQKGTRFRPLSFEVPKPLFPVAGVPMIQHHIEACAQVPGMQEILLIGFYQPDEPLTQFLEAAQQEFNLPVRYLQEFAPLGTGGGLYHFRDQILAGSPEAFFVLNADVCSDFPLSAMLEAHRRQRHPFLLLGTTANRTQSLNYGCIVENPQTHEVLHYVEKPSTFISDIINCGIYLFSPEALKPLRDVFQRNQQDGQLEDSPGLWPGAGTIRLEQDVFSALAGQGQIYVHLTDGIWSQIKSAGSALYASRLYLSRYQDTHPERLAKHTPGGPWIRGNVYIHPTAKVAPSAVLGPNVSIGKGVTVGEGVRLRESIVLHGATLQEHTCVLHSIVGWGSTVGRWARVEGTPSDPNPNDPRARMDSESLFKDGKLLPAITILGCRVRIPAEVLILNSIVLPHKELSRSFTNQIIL

Chain of Mannose-1-phosphate guanylyltransferase catalytic subunit beta (Homo sapiens), Q9Y5P6-1 D334N (Q9Y5P6 whole entry D334N): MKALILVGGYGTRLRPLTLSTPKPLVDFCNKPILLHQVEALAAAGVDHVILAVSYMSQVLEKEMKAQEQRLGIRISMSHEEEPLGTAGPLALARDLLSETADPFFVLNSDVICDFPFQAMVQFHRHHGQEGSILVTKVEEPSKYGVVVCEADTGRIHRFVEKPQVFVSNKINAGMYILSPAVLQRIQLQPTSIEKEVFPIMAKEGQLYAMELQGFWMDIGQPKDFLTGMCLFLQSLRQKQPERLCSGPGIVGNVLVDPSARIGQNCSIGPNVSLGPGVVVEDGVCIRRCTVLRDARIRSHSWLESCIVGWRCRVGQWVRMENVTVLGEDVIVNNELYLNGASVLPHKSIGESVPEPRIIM
Chain of Mannose-1-phosphate guanylyltransferase catalytic subunit beta (Homo sapiens), Q9Y5P6-1 R293W (Q9Y5P6 whole entry R293W): as the sequence (Q9Y5P6 whole entry D334N) above, with R293W, N334D counted along it
Chain of Mannose-1-phosphate guanylyltransferase catalytic subunit beta (Homo sapiens), Q9Y5P6-1 C266Y (Q9Y5P6 whole entry C266Y): as the sequence (Q9Y5P6 whole entry D334N) above, with C266Y, N334D counted along it
Chain of Mannose-1-phosphate guanylyltransferase catalytic subunit beta (Homo sapiens), Q9Y5P6-1 R357H (Q9Y5P6 whole entry R357H): as the sequence (Q9Y5P6 whole entry D334N) above, with N334D, R357H counted along it
Chain of Mannose-1-phosphate guanylyltransferase catalytic subunit beta (Homo sapiens), Q9Y5P6-1 L303F (Q9Y5P6 whole entry L303F): as the sequence (Q9Y5P6 whole entry D334N) above, with L303F, N334D counted along it

Substance	effect of a mutation on the interaction
Mannose-1-phosphate guanylyltransferase catalytic subunit beta (Homo sapiens), Q9Y5P6-1 C266Y	with no effect
Mannose-1-phosphate guanylyltransferase catalytic subunit beta (Homo sapiens), Q9Y5P6-1 D334N	with no effect
Mannose-1-phosphate guanylyltransferase catalytic subunit beta (Homo sapiens), Q9Y5P6-1 L303F	with no effect
Mannose-1-phosphate guanylyltransferase catalytic subunit beta (Homo sapiens), Q9Y5P6-1 R293W	with no effect
Mannose-1-phosphate guanylyltransferase catalytic subunit beta (Homo sapiens), Q9Y5P6-1 R357H	decreasing interaction strength
